The record followed here is paper doi:10.1101/2021.01.21.427566, “Gradual opening of Smc arms in prokaryotic condensin” (bioRxiv, 2021).

Data set [1] deals with the molecule itself. The data set is described as follows: EPR-DEER; MTSL-labelled single-cysteine Smc, 5 µM, mixed with ScpA and ScpB (similar trends without ScpAB); apo, or with 1 mM ATP and 10 µM dsDNA40; 50 mM Tris-HCl pH 7.5, 50 mM NaCl, 2 mM MgCl2, 40 % ethylene glycol-d6, 90 % deuterium oxide; shock-frozen, DEER traces at 50 K, Q band; spin-spin distances between the two Smc of a dimer.

Data set [2] concerns the molecule itself. The data set is described as follows: cross-linking; purified single-cysteine Smc, 30 µM dimers with 600 µM M3M in 50 mM Tris-HCl pH 7.5, 200 mM NaCl, 4 °C overnight; non-reducing SDS-PAGE, Coomassie; reversed by up to 10 mM DTT.

B1: Smc^3S(R643C, E1118Q) (natural protein, B. subtilis, UniProt P51834 1-1186, looked up)
chain: MFLKRLDVIGFKSFAERISVDFVKGVTAVVGPNGSGKSNITDAIRWVLGEQSARSLRGGKMEDIIFAGSDSRKRLNLAEVTLTLDNDDHFLPIDFHEVSVTRRVYRSGESEFLINNQPSRLKDIIDLFMDSGLGKEAFSIISQGKVEEILSSKAEDRRSIFEEAAGVLKYKTRKKKAENKLFETQDNLNRVEDILHELEGQVEPLKIQASIAKDYLEKKKELEHVEIALTAYDIEELHGKWSTLKEKVQMAKEEELAESSAISAKEAKIEDTRDKIQALDESVDELQQVLLVTSEELEKLEGRKEVLKERKKNAVQNQEQLEEAIVQFQQKETVLKEELSKQEAVFETLQAEVKQLRAQVKEKQQALSLHNENVEEKIEQLKSDYFELLNSQASIRNELQLLDDQMSQSAVTLQRLADNNEKHLQERHDISARKAASETEFARIEQEIHSQVGAYRDMQTKYEQKKRQYEKNESALYQAYQYVQQARSKKDMLETMQGDFSGFYQGVKEVLKAKERLGGIRGAVLELISTEQKYETAIEIALGASAQHVVTDDEQSARKAIQYLKQNSFGRATFLPLSVIRDRQLQSRDAETAARHSSFLGVASELVTFDPAYRSVIQNLLGTVLITEDLKGANELAKLLGHCYRIVTLEGDVVNPGGSMTGGAVKKKNNSLLGRSRELEDVTKRLAEMEEKTALLEQEVKTLKHSIQDMEKKLADLRETGEGLRLKQQDVKGQLYELQVAEKNINTHLELYDQEKSALSESDEERKVRKRKLEEELSAVSEKMKQLEEDIDRLTKQKQTQSSTKESLSNELTELKIAAAKKEQASKGEEDNLARLKKELTETELALKEAKEDLSFLTSEMSSSTSGEEKLEEAAKHKLNDKTKTIELIALRRDQRIKLQHGLDTYERELKEMKRLYKQKTTLLKDEEVKLGRMEVELDNLLQYLREEYSLSFEGAKEKYQLETDPEEARKRVKLIKLAIEELGTVNLGSIDEFERVNERYKFLSEQKEDLTEAKNTLFQVIEEMDEEMTKRFNDTFVQIRSHFDQVFRSLFGGGRAELRLTDPNDLLHSGVEIIAQPPGKKLQNLNLLSGGERALTAIALLFSILKVRPVPFCVLDQVEAALDEANVFRFAQYLKKYSSDTQFIVITHRKGTMEEADVLYGVTMQESGVSKVISVKLEETKEFVQ
modifications: MTSL spin label on the engineered cysteine 643
notes: Smc, Bacillus subtilis (Bsu), cysteine-lite Smc^3S background with R643C and Walker B E1118Q; also called Smc^3S(EQ) single cysteine mutant; source: E. coli BL21-Gold (DE3), purified (HiTrap Blue, Heparin, gel filtration)
B1: in data set [1], the binding result is reported as “binds”.

B2: Smc^3SV(D193C) (natural protein, B. subtilis, UniProt P51834 1-1186, looked up)
chain: MFLKRLDVIGFKSFAERISVDFVKGVTAVVGPNGSGKSNITDAIRWVLGEQSARSLRGGKMEDIIFAGSDSRKRLNLAEVTLTLDNDDHFLPIDFHEVSVTRRVYRSGESEFLINNQPSRLKDIIDLFMDSGLGKEAFSIISQGKVEEILSSKAEDRRSIFEEAAGVLKYKTRKKKAENKLFETQDNLNRVECILHELEGQVEPLKIQASIAKDYLEKKKELEHVEIALTAYDIEELHGKWSTLKEKVQMAKEEELAESSAISAKEAKIEDTRDKIQALDESVDELQQVLLVTSEELEKLEGRKEVLKERKKNAVQNQEQLEEAIVQFQQKETVLKEELSKQEAVFETLQAEVKQLRAQVKEKQQALSLHNENVEEKIEQLKSDYFELLNSQASIRNELQLLDDQMSQSAVTLQRLADNNEKHLQERHDISARKAASETEFARIEQEIHSQVGAYRDMQTKYEQKKRQYEKNESALYQAYQYVQQARSKKDMLETMQGDFSGFYQGVKEVLKAKERLGGIRGAVLELISTEQKYETAIEIALGASAQHVVTDDEQSARKAIQYLKQNSFGRATFLPLSVIRDRQLQSRDAETAARHSSFLGVASELVTFDPAYRSVIQNLLGTVLITEDLKGANELAKLLGHRYRIVTLEGDVVNPGGSMTGGAVKKKNNSLLGRSRELEDVTKRLAEMEEKTALLEQEVKTLKHSIQDMEKKLADLRETGEGLRLKQQDVKGQLYELQVAEKNINTHLELYDQEKSALSESDEERKVRKRKLEEELSAVSEKMKQLEEDIDRLTKQKQTQSSTKESLSNELTELKIAAAKKEQASKGEEDNLARLKKELTETELALKEAKEDLSFLTSEMSSSTSGEEKLEEAAKHKLNDKTKTIELIALRRDQRIKLQHGLDTYERELKEMKRLYKQKTTLLKDEEVKLGRMEVELDNLLQYLREEYSLSFEGAKEKYQLETDPEEARKRVKLIKLAIEELGTVNLGSIDEFERVNERYKFLSEQKEDLTEAKNTLFQVIEEMDEEMTKRFNDTFVQIRSHFDQVFRSLFGGGRAELRLTDPNDLLHSGVEIIAQPPGKKLQNLNLLSGGERALTAIALLFSILKVRPVPFVVLDEVEAALDEANVFRFAQYLKKYSSDTQFIVITHRKGTMEEADVLYGVTMQESGVSKVISVKLEETKEFVQ
modifications: engineered cysteine 193 cross-linked with M3M
notes: Smc, Bacillus subtilis (Bsu), cys-free Smc^3SV background with D193C; also called D193C at contact 1^N; source: E. coli BL21-Gold (DE3), purified (HiTrap Blue, Heparin, gel filtration without reducing agent)
B2: in data set [2], the binding result is “binds”.

B3: Smc^3SV(Y944C) (natural protein, B. subtilis, UniProt P51834 1-1186, looked up)
chain: MFLKRLDVIGFKSFAERISVDFVKGVTAVVGPNGSGKSNITDAIRWVLGEQSARSLRGGKMEDIIFAGSDSRKRLNLAEVTLTLDNDDHFLPIDFHEVSVTRRVYRSGESEFLINNQPSRLKDIIDLFMDSGLGKEAFSIISQGKVEEILSSKAEDRRSIFEEAAGVLKYKTRKKKAENKLFETQDNLNRVEDILHELEGQVEPLKIQASIAKDYLEKKKELEHVEIALTAYDIEELHGKWSTLKEKVQMAKEEELAESSAISAKEAKIEDTRDKIQALDESVDELQQVLLVTSEELEKLEGRKEVLKERKKNAVQNQEQLEEAIVQFQQKETVLKEELSKQEAVFETLQAEVKQLRAQVKEKQQALSLHNENVEEKIEQLKSDYFELLNSQASIRNELQLLDDQMSQSAVTLQRLADNNEKHLQERHDISARKAASETEFARIEQEIHSQVGAYRDMQTKYEQKKRQYEKNESALYQAYQYVQQARSKKDMLETMQGDFSGFYQGVKEVLKAKERLGGIRGAVLELISTEQKYETAIEIALGASAQHVVTDDEQSARKAIQYLKQNSFGRATFLPLSVIRDRQLQSRDAETAARHSSFLGVASELVTFDPAYRSVIQNLLGTVLITEDLKGANELAKLLGHRYRIVTLEGDVVNPGGSMTGGAVKKKNNSLLGRSRELEDVTKRLAEMEEKTALLEQEVKTLKHSIQDMEKKLADLRETGEGLRLKQQDVKGQLYELQVAEKNINTHLELYDQEKSALSESDEERKVRKRKLEEELSAVSEKMKQLEEDIDRLTKQKQTQSSTKESLSNELTELKIAAAKKEQASKGEEDNLARLKKELTETELALKEAKEDLSFLTSEMSSSTSGEEKLEEAAKHKLNDKTKTIELIALRRDQRIKLQHGLDTYERELKEMKRLYKQKTTLLKDEEVKLGRMEVELDNLLQCLREEYSLSFEGAKEKYQLETDPEEARKRVKLIKLAIEELGTVNLGSIDEFERVNERYKFLSEQKEDLTEAKNTLFQVIEEMDEEMTKRFNDTFVQIRSHFDQVFRSLFGGGRAELRLTDPNDLLHSGVEIIAQPPGKKLQNLNLLSGGERALTAIALLFSILKVRPVPFVVLDEVEAALDEANVFRFAQYLKKYSSDTQFIVITHRKGTMEEADVLYGVTMQESGVSKVISVKLEETKEFVQ
modifications: engineered cysteine 944 cross-linked with M3M
notes: Smc, Bacillus subtilis (Bsu), cys-free Smc^3SV background with Y944C; also called Y944C at contact 3^C; source: E. coli BL21-Gold (DE3), purified (HiTrap Blue, Heparin, gel filtration without reducing agent)
Turning to B3, the binding result in data set [2] is given as “binds”.

B4: Smc^3SV(A715C) (natural protein, B. subtilis, UniProt P51834 1-1186, looked up)
chain: MFLKRLDVIGFKSFAERISVDFVKGVTAVVGPNGSGKSNITDAIRWVLGEQSARSLRGGKMEDIIFAGSDSRKRLNLAEVTLTLDNDDHFLPIDFHEVSVTRRVYRSGESEFLINNQPSRLKDIIDLFMDSGLGKEAFSIISQGKVEEILSSKAEDRRSIFEEAAGVLKYKTRKKKAENKLFETQDNLNRVEDILHELEGQVEPLKIQASIAKDYLEKKKELEHVEIALTAYDIEELHGKWSTLKEKVQMAKEEELAESSAISAKEAKIEDTRDKIQALDESVDELQQVLLVTSEELEKLEGRKEVLKERKKNAVQNQEQLEEAIVQFQQKETVLKEELSKQEAVFETLQAEVKQLRAQVKEKQQALSLHNENVEEKIEQLKSDYFELLNSQASIRNELQLLDDQMSQSAVTLQRLADNNEKHLQERHDISARKAASETEFARIEQEIHSQVGAYRDMQTKYEQKKRQYEKNESALYQAYQYVQQARSKKDMLETMQGDFSGFYQGVKEVLKAKERLGGIRGAVLELISTEQKYETAIEIALGASAQHVVTDDEQSARKAIQYLKQNSFGRATFLPLSVIRDRQLQSRDAETAARHSSFLGVASELVTFDPAYRSVIQNLLGTVLITEDLKGANELAKLLGHRYRIVTLEGDVVNPGGSMTGGAVKKKNNSLLGRSRELEDVTKRLAEMEEKTALLEQEVKTLKHSIQDMEKKLCDLRETGEGLRLKQQDVKGQLYELQVAEKNINTHLELYDQEKSALSESDEERKVRKRKLEEELSAVSEKMKQLEEDIDRLTKQKQTQSSTKESLSNELTELKIAAAKKEQASKGEEDNLARLKKELTETELALKEAKEDLSFLTSEMSSSTSGEEKLEEAAKHKLNDKTKTIELIALRRDQRIKLQHGLDTYERELKEMKRLYKQKTTLLKDEEVKLGRMEVELDNLLQYLREEYSLSFEGAKEKYQLETDPEEARKRVKLIKLAIEELGTVNLGSIDEFERVNERYKFLSEQKEDLTEAKNTLFQVIEEMDEEMTKRFNDTFVQIRSHFDQVFRSLFGGGRAELRLTDPNDLLHSGVEIIAQPPGKKLQNLNLLSGGERALTAIALLFSILKVRPVPFVVLDEVEAALDEANVFRFAQYLKKYSSDTQFIVITHRKGTMEEADVLYGVTMQESGVSKVISVKLEETKEFVQ
modifications: engineered cysteine 715 cross-linked with M3M
notes: Smc, Bacillus subtilis (Bsu), cys-free Smc^3SV background with A715C; also called A715C at contact 7^C; source: E. coli BL21-Gold (DE3), purified (HiTrap Blue, Heparin, gel filtration without reducing agent)
For the protein B4, in data set [2], the binding result is “binds”.

B5: Smc^3SV(Q320C) (natural protein, B. subtilis, UniProt P51834 1-1186, looked up)
chain: MFLKRLDVIGFKSFAERISVDFVKGVTAVVGPNGSGKSNITDAIRWVLGEQSARSLRGGKMEDIIFAGSDSRKRLNLAEVTLTLDNDDHFLPIDFHEVSVTRRVYRSGESEFLINNQPSRLKDIIDLFMDSGLGKEAFSIISQGKVEEILSSKAEDRRSIFEEAAGVLKYKTRKKKAENKLFETQDNLNRVEDILHELEGQVEPLKIQASIAKDYLEKKKELEHVEIALTAYDIEELHGKWSTLKEKVQMAKEEELAESSAISAKEAKIEDTRDKIQALDESVDELQQVLLVTSEELEKLEGRKEVLKERKKNAVQNQECLEEAIVQFQQKETVLKEELSKQEAVFETLQAEVKQLRAQVKEKQQALSLHNENVEEKIEQLKSDYFELLNSQASIRNELQLLDDQMSQSAVTLQRLADNNEKHLQERHDISARKAASETEFARIEQEIHSQVGAYRDMQTKYEQKKRQYEKNESALYQAYQYVQQARSKKDMLETMQGDFSGFYQGVKEVLKAKERLGGIRGAVLELISTEQKYETAIEIALGASAQHVVTDDEQSARKAIQYLKQNSFGRATFLPLSVIRDRQLQSRDAETAARHSSFLGVASELVTFDPAYRSVIQNLLGTVLITEDLKGANELAKLLGHRYRIVTLEGDVVNPGGSMTGGAVKKKNNSLLGRSRELEDVTKRLAEMEEKTALLEQEVKTLKHSIQDMEKKLADLRETGEGLRLKQQDVKGQLYELQVAEKNINTHLELYDQEKSALSESDEERKVRKRKLEEELSAVSEKMKQLEEDIDRLTKQKQTQSSTKESLSNELTELKIAAAKKEQASKGEEDNLARLKKELTETELALKEAKEDLSFLTSEMSSSTSGEEKLEEAAKHKLNDKTKTIELIALRRDQRIKLQHGLDTYERELKEMKRLYKQKTTLLKDEEVKLGRMEVELDNLLQYLREEYSLSFEGAKEKYQLETDPEEARKRVKLIKLAIEELGTVNLGSIDEFERVNERYKFLSEQKEDLTEAKNTLFQVIEEMDEEMTKRFNDTFVQIRSHFDQVFRSLFGGGRAELRLTDPNDLLHSGVEIIAQPPGKKLQNLNLLSGGERALTAIALLFSILKVRPVPFVVLDEVEAALDEANVFRFAQYLKKYSSDTQFIVITHRKGTMEEADVLYGVTMQESGVSKVISVKLEETKEFVQ
modifications: engineered cysteine 320 cross-linked with M3M
notes: Smc, Bacillus subtilis (Bsu), cys-free Smc^3SV background with Q320C; also called Q320C at contact 4^N; source: E. coli BL21-Gold (DE3), purified (HiTrap Blue, Heparin, gel filtration without reducing agent)
On to B5, for which the binding result in data set [2] is given as “binds”.
